The text below walks through data of patent US20230181772A1 (CITY OF HOPE, published 2023).

The target of assay [1] is T1, human prostate stem cell antigen (PSCA) on the cell surface (human, UniProt O43653 12-83).
T1 construct: Expressed on transduced cell lines (22Rv1-hPSCA, RM9-hPSCA, KPC-hPSCA) or endogenously on Capan-1; also called hPSCA; 22Rv1-PSCA
T1 sequence: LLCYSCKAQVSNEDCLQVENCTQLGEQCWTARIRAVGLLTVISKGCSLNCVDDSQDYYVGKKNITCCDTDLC
Description: flow cytometry titration on PSCA-expressing cells, apparent on-cell affinity (half-maximal binding). Here is the method: The capability of the anti-PSCA antibody fragments to bind to PSCA expressed on the cell surface was analyzed by flow cytometry. Antigen specificity was confirmed using PSCA-positive and negative cell lines. In this assay binding was only seen with 22Rv1-PSCA cells but not with 22Rv1 (FIG. 9A). […] Binding to murine cell lines transduced to express human PSCA and the human pancreatic cancer cell line Capan-1 was also confirmed using the A2scFv-Fc2 (FIG. 9C).

For a further assay, the target named is T2, BSA (UniProt P02769 25-607).
T2 construct: Negative control coating in the ELISA; also called BSA coated wells
T2 sequence (P02769 25-607 limits assumed): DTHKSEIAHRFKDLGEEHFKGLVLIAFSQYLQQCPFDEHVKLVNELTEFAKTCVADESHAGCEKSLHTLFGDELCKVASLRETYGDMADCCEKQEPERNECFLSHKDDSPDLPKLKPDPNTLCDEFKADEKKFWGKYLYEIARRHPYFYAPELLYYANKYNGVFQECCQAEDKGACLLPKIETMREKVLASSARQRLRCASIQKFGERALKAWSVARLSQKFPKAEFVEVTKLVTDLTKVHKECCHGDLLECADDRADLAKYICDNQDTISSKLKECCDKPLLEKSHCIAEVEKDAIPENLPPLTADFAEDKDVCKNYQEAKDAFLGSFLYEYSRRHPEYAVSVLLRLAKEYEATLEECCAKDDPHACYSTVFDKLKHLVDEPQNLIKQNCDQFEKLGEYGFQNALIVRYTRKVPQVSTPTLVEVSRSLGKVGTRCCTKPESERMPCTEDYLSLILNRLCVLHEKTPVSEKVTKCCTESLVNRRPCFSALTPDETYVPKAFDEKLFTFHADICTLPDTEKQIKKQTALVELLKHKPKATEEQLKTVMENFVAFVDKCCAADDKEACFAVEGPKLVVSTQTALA
In words: ELISA, control wells blocked with BSA. Here is the method:
For further confirmation of specific antigen binding ELISA was used to detect binding of A2scFv-Fc2 and A2scFv-Fc2DM to immobilized antigen hPSCA-mFc (FIG. 5). Different concentrations of hPSCA-mFc were coated (1, 3 and 5 μg/mL in PBS, 100 μL/well) overnight, control wells were blocked with BSA. Presence of immobilized antigen was detected using goat anti-mouseFc-AP. […] No nonspecific binding to BSA coated wells was detected.

Assay [2] has as its target T3, recombinant human PSCA-mouseFc fusion protein (human, UniProt O43653 12-83, limits assumed).
T3 construct: also called hPSCA-mFc; Recombinant human PSCA mouse Fc fusion protein (UCLA); not shown: mouse Fc
T3 sequence: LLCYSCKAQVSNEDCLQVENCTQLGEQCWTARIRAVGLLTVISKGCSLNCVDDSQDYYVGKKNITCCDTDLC
Description: saturation binding ELISA on immobilized hPSCA-mFc (1 ug/mL), half-maximal binding, one-site specific binding fit, 3 experiments. Here is the method: Western Blot was also used to test antigen specificity. Recombinant human PSCA mouse Fc fusion protein (UCLA) was blotted and anti-PSCA scFv-Fc variants were tested for binding. Specificity and affinity of antigen binding was further evaluated by performing saturation binding on immobilized antigen in ELISA. Specific binding was fitted using the “one site-specific binding” equation to determine the Kd (ligand concentration that binds half the antigen sites at equilibrium) and Bmax (maximum number of binding sites).
Saturation binding of the anti-PSCA scFv-Fc fragments was tested in ELISA in 3 independent experiments with duplicates. Binding of serial dilutions (1 μM-[…]) of A2scFv-Fc2 and A2scFv-Fc2DM to immobilized recombinant hPSCA-m Fc (1 μg/mL) was specific and dose-dependent (FIG. 6).

B1: A2scFv-Fc2 (Fc fusion)
chain: EVQLVESGGGLVQPGGSLRLSCAASGFNIKDYYIHWVRQAPGKGLEWVAWIDPEYGDSEFVPKFQGRATMSADTSKNTAYLQMNSLRAEDTAVYYCKTGGFWGRGTLVTVSSGGGGSGGGGSGGSAQDIQLTQSPSSLSASVGDRVTITCSASSSVRFIHWYQQKPGKAPKRLIYDTSKLASGVPSRFSGSGSGTDFTLTISSLQPEDFATYYCQQWGSSPFTFGQGTKVEIKVECPPCPAPPVAGPSVFLFPPKPKDTLMISRTPEVTCVVVDVSHEDPEVQFNWYVDGMEVHNAKTKPREEQFNSTFRVVSVLTVVHQDWLNGKEYKCKVSNKGLPAPIEKTISKTKGQPREPQVYTLPPSREEMTKNQVSLTCLVKGFYPSDIAVEWESNGQPENNYKTTPPMLDSDGSFFLYSKLTVDKSRWQQGNVFSCSVMHEALHNHYTQKSLSLSPGK
notes: Homodimer of two scFv-Fc peptides: anti-PSCA A2 VH-VL scFv with a (G4S)2-GGSAQ linker, truncated human IgG2 hinge and Fc; Made in FreeStyle 293-F cells, glycosylated at Asn-297; also called anti-PSCA scFv-Fc2
Take B1: the figures for the Kd in assay [1] and in assay [2] were 1200 pM and 500 pM, respectively. Also, the binding result with BSA is recorded as “no binding”.

B2: A2scFv-Fc2DM (Fc fusion)
chain: EVQLVESGGGLVQPGGSLRLSCAASGFNIKDYYIHWVRQAPGKGLEWVAWIDPEYGDSEFVPKFQGRATMSADTSKNTAYLQMNSLRAEDTAVYYCKTGGFWGRGTLVTVSSGGGGSGGGGSGGSAQDIQLTQSPSSLSASVGDRVTITCSASSSVRFIHWYQQKPGKAPKRLIYDTSKLASGVPSRFSGSGSGTDFTLTISSLQPEDFATYYCQQWGSSPFTFGQGTKVEIKVECPPCPAPPVAGPSVFLFPPKPKDTLMISRTPEVTCVVVDVSHEDPEVQFNWYVDGMEVHNAKTKPREEQFNSTFRVVSVLTVVAQDWLNGKEYKCKVSNKGLPAPIEKTISKTKGQPREPQVYTLPPSREEMTKNQVSLTCLVKGFYPSDIAVEWESNGQPENNYKTTPPMLDSDGSFFLYSKLTVDKSRWQQGNVFSCSVMHEALHNQYTQKSLSLSPGK
notes: Homodimer; also called A2scFv-FcDM; double mutant
Consider B2, for which the Kd was determined as 650 pM in assay [1] and 800 pM in assay [2]. In addition, the binding result with BSA was “no binding”.
